# Data from the DeepSol protein solubility set.
# Test: soluble on expression in E. coli; label from the status in PepcDB or PDB records
row,Sequence,soluble on expression in E. coli
1,MITAIVFDVDDTIYDQQAPYRIAMEKCFPDFDMSVMNQAYIRFRHYSDVGFPRVMAGEWTTEYFRFWRCKETLLEFGYREIDEAAGVHFQEVYEHELENITMLDEMRMTLDFLKSKNVPMGIITNGPTEHQLKKVRKLGLYDYIDAKRVIVSQATGFQKPEKEIFNLAAEQFDMNPQTTLYVGDSYDNDIMGAFNGGWHSMWFNHRGRQLKPGTKPVYDVAIDNFEQLFGAVKVLFDLPDNKFIFDVNDKKNPILQMGINNGLMMAAERLLESNMSIDKVVILLRLTKQQEKVLRLKYAR,not soluble
2,MGSDKIHHHHHHMKKLSHQFDKPKRSVASPEALEALRNNNAVRWYVLSLPDCHRGGVRGLQREQDRRIQAGEPSFGFFAPSYQEVRRIDGKFVNTQRPLLFNYVFVRASERDVFQLMQRFPVLSFLPRVRERKREYFPYLSDAAMENLQWVARSYSNTLPVYIPQPDGLRKGDRIRITEGRFKGVEATVVIQPGAGRKDVMVCVENWMWVPLLRVMPGEYEVIALNDEDKHVYTRLDNDCMLNGLHSALQRYHSAEGVNEEDRSLAARALKEYGNLRMDTDVMRCKLYAILLPAYTILGMEEEAAKLVGVMQTMLPLVKAEQSRALAVVTLYGCTDSSIYYHLAHEAVDPWKKEEKPKKSKQQLINRLADYDRWLRH,not soluble
3,MKFPGQRKSKHYFPVHARDPLVIQAQENKKMSRTHIIGIDQTLVDIEAKVDSDLIERYGLSKGHSLVIDDHAAEALYNELKEQRLITNEYAGGTIGNTLHNYSVLADDRSTLLGVMSQDIKIGSYGYRYLCNTSSRMDLNYLQGVDGAIGRCFALITEDGERTFAISEGQMNQLRPDSIPEKIFASASALVITAYLVRCKEGDPMPEATMRAIEYAKKYDVPVVLTLGTKFVIQDDPKFWQEFLRDHVTVVAMNEDEALALTGESDPLAASDKALDWVDLVLCTAGPVGLFMAGYTEDSAKRETSLPLLPGSVPEFNRYEFSRPARKESCINPIRVYSHISPYMGGPEKIKNTNGAGDAALSALLHDMAANKYHKENVPNSSKHQHEFLTYSSFSQVCKYSNRASYEVLAQHSPRLSRGLPEREDSLEEAYWER,not soluble
4,MLTFVSPVFGAPKKRKWFSKLSGKQLCCFRCVSCLQVEQPSRSHPNYWRNIAREVNKTLKEHSLEANNPINVTDEDSSVFVDTTTDEREEGGPTFIQQSSRVQLDSAEISHSNSMTTDSHSLYQNNSPNSTGMEEEPSDYSVQFSTSWNPNTSWLQFPDLVESADIRRKTQEISKHQKEDVFKYYIDSENNLRPFHDAISPMHIFSKESETQTVSEPSAWENWHQLSQKGNEDSSSLDESLDDEWSEIDRWRPVAVELEGYNPKLTEDTSEEVRIEKNKLSKRREAVAWQKWFSTQQYNLSSELWERRIGVTGKDCDKNTSIYKQWLADMEQGLEP,not soluble
5,GQEVTVSCAEGDTGFIYAGLLDVQITDVALDNMPKAPVKVMMNVGNPELAFSFANLPSEGIGLARMEFIINRQIGIHPKALLEFDKQDDELKAEITRRIAGYASPVDFYVDKIAEGVATLAASVYPRKTIVRMSDFKSNEYANL,not soluble
6,FLGELLIDLPLPVDTPSVDQCEKCRACITSCPTQAIVEDKVVDARRCISYLTIEFDGVIPEEFRKPMGNRIYGCDDCQLVCPWNRYADVTEQEDFHRRESFHNPDLVE,not soluble
7,MSKLYLMSLGCNKNLVDSEIMLGHLSAYELCDEPSKADVLIVNTCGFIDSAKKESINAILDLHEQRKKDSLLVVTGCLMQRYREELMKELPEVDLFTGVGDYERIDEMILKKTNLFSNSTYLQSENSKRIITGSNSHAFIKIAEGCNQKCSFCAIPSFKGKLKSREISSIIAELKDLVARGYKDFSFIAQDTSSYLFDKGEKDGLIRLIDEVEKIKGIRAARILYLYPTSASEALIKRIIASEIFINYFDMPLQHISDNMLKIMKRGANSTRLKEMLNLMKSAPNSFLRTGFIVGHPGESEADFEELCEFVKDFGFDRISVFAYSKEEDTAAFDMEQVPFKVINKRLKIIEKIVDEVIEKSFEKEVGQKRLVVCTGKSSEGEFFIAAKDLRWDREIDGEILINESECGNLEMGQIYECEILQNLDKKLLAKALRKVDANLEHHHHHH,soluble
8,MSLENDSLEITYLGKRYKISLNNTFSDEMKRTLKERFHNQELNALELLKDYLHESCQNEYLHNELQKLLEKISSCSIT,not soluble
9,MLNTILVALDGSEIAERVIQTLGYLVLSPNTNVILCHVFPAPESEIELPADRPQPDLPNFSYFNIDKQMQSYQERLSVKSELELVMGDPADEIIRLANIYKADLVVIGSRGLTGMNRIVQGSVSTQVMEAANCSVLVVKPARN,not soluble
10,GPGSMATGTSPPSLVTVPLLRAALLLRWRLLSLQFDGDSNMCVLAEDAADGLPRGTRLEMYGSNVQLVRQLSGAGEALLQPSVIGEVTATLEGALTDDTTERRGRQIVAVLSPPHLSSSLGGPEFKGNEDVEVIAQWTLSRKRVENVQRVTDTTKRDGVKNEEPPPLMENGIVFPSPRFAGLRVLRAARHSFALLLENELRERTGESEVGKVGPLAVLDVSELDCTFSRVAVQMAVERGLVLEQHMHVNFVPLTPAATATADETVRSLLRLVAHPTRGAHLDPLRPLQARCFKLGCCTFCSKGRGSAANEGSKKDEASLVSRLAGVISKIHSNGTLLVNLVGDGINHEELRQGAEMHLVEALLRADRCGVVIDEVLPAADTRGTAISFVVSLC,not soluble
11,GPGSMSNEEVFRISNVSGYSVEIPLATAKELLGMLNMDQVFRAARAGTDDTDESGVDDGDTEPVKAEGMDYGKEVLDVVRAYALLPPDKRTSSIPRPLTQDLRSVVYAGEMELVEKAEREDYLVDLLNCALFLRFSQLSALCAAYMAVRIDEIAKAAPDIMEGAERIRKFLHMQNEWTEEEMGHLRREMEYAKSVDPNVY,soluble
12,MAEVPHHNIPAVDMLNATSRLQLEAQELRNNKPNWGSYFRSQMIQEDDYNFITSFENAKSKEERDQVLAANNANGQAAKTMANLITQVAKDQNVRYVLTLFDDMLQEDKSRVELFHSAAARQKRTVWSQYLGILQRQDNFIVNQMSSIIAKLACFGTTRMEGQDLQYYFSFLKEQLKNSTTNDYMNTTARCLQMMLRHDEYRHEFVDSDGVQTLVTALNGKTNFQLQYQLIFAVWCLTFNADIARKAPSLGLIQALGDILSESTKEKVIRIILASFVNILSKVDEREVKREAALQMVQCKTLKTLELMDAKKYDDPDLEDDVKFLTEELTLSVHDLSSYDEYYSEVRSGRLQWSPVHKSEKFWRENASKFNDKQFEVVKILIKLLESSHDPLILCVASHDIGEYVRHYPRGKTVVEQYQGKAAVMRLLTAEDPNVRYHALLAVQKLMVHNWEYLGKQLDSDVQTDTVAVK,not soluble
13,MAELNTHVNVKEKIYAVRSVVPNKSNNEIVLVLQQFDFNVDKAVQAFVDGSAIQVLKEWNMTGKKNNKRKRSKSKQHQGNKDAKDKVERPEAGPLQPQPPQIQNGPMNGCEKDSSSTDSANEKPALIPREKKISILEEPSKALRGVTGPNIEKSVKDLQRCTVSLTRYRVMIKEEVDSSVKKIKAAFAELHNCIIDKEVSLMAEMDKVKEEAMEILTARQKKAEELKRLTDLASQMAEMQLAELRAEIKHFVSERKYDEELGKAARFSCDIEQLKAQIMLCGEITHPKNNYSSRTPCSSLLPLLNAHAATSGKQSNFSRKSSTHNKPSEGKAANPKMVSSLPSTADPSHQTMPANKQNGSSNQRRRFNPQYHNNRLNGPAKSQGSGNEAEPLGKGNSRHEHRRQPHNGFRPKNKGGAKNQEASLGMKTPEAPAHSEKPRRRQHAADTSEARPFRGSVGRVSQCNLCPTRIEVSTDAAVLSVPAVTLVA,soluble
14,AHHHHHHGSNQLEAVREKLRVIRMLRVLKKTYTYEDLSEITGLPVTVLNRYVKGKVLPSVERARELFEKLSPYLNLEEEVKKRLRFDSHGFFDSMSVLSDTNLLALISEDVALKYMKVGVEKILTAATDGIPLAVQIANELGVDVVYAKKKKEVGVERFYEVNYIPSASGSITTLYLPTWALKKGERVLIVDDVVRSGETQRALVELCRQAGAIPVGMFFLISVGDIVERLKEEYNIPVEALVNL,soluble
15,MGSDKIHHHHHHMHACGDAVLFLPPNPFLDLRPVPHTSWARLPPMIRLAVLSDLHANLEATLAVHADVQRRGIQEIWVLGDLVGKGPRPREVVEWTQAHASRVIQGNWDARVAGATNRPQDLWPRSKLTPAQLAYLAGLPYGIEEQFSGAWWRFVHASSKGLFHRLYPHSSLAEQLEAYMPNPQFGLKVHADALVYADVHETLMLDVEGRPLINTGSVGNPLDSTLPSYLILEFDPHSPAHSATFVRLTYNRDAEIAAAEASGMPFTREYVAELLTGAYQKRRARTGE,not soluble
